Reference: the supplement of paper PMC9170038

Legend:
MS2 coat protein [1] = test: apparent KD of MS2 coat protein, switch ON state; designed switch direction (-1 OFF switch, 1 ON switch): 1; higher = weaker reporter binding; details: FMN input: 0 or 200 uM; Eterna round: R93 (includes R88 designs)
Procedure, shortened: (§1)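 Apparent KD was obtained for each design as the median of normalised binding-curve fits over its clusters. RNA switches transcribed on-chip from Illumina sequencing clusters were titrated with SNAP-549-labelled MS2 coat protein (twofold steps, 0.7 or 1.5 nM to 3 µM) in 100 mM Tris-HCl pH 7.5, 80 mM KCl, 4 mM MgCl2, without or with constant ligand.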

MS2 coat protein [2] = test: apparent KD of MS2 coat protein, switch OFF state (with FMN for OFF switches, without FMN for ON switches); designed switch direction (-1 OFF switch, 1 ON switch): 1; higher = weaker reporter binding; details: FMN input: 0 or 200 uM; Eterna round: R93 (includes R88 designs)
Procedure, shortened: as §1

| Sequence | apparent KD of MS2 coat protein (MS2 coat protein [1]) | apparent KD of MS2 coat protein (MS2 coat protein [2]) |
| --- | --- | --- |
| GAGGACCUAGGAUAGGAUAUAUGAAUAAUUACAUGAGGAUCACCCAUGUCCAUUUAUAUGGGAACAUAGAAGGGUUCUGGUUAUC [SameState2 Malc#37] | 36.9 nM | 60.6 nM |
| AAAUAAAGGACUGAGGAUAUACCACAUGAAACAUGAGGAUCACCCAUGUUAAAAAACAAAGGGUGGUAGAAGGCAGUCCACAAAC [Same State 2.5f ( so lets mod hyphema)] | 9.26 nM | 12.1 nM |
| GAAAAACAUGAGGAUCACCCAUGUGUAAAUAUGGGAGGAUAUACGAAGACGUAAGUCAAAGUAGAAGGCCUAAAAG [Garnet 92] | 24.7 nM | 119 nM |
| UAACAACAUGAGGAUCACCCAUGUCAAACAGAUCGAGGAUAUGGGCAGGGUUUUCCCUAACUAGAAGGCGAAGACA [Leinxeerri] | 71.1 nM | 181 nM |
| AAUAUACAUGAGGAUCACCCAUGUUUUAAUAGCUGAGGAUAUACGGGUGAAAAUAGCAUAGUAGAAGGCGGGUGUA [SameState1 Malc#9] | 92.2 nM | 80 nM |
| CGAAAGGAGAGAGAGGAUAUCCAAAGGAAAACAUGAGGAUCACCCAUGUAGAAGGUAGGAGAUUGGGAGAAGGCUCAAGCAAAAG [salish99-ss2-155] | 29 nM | 26.4 nM |
| AAUAUAUUAAGUGAGGAUAUCAUAGAAAAAACAUGAGGAUCACCCAUGUGGGAAACCUGGUCGGGUGAGAAGGCACUUAAUAUAU [Samwise Clockwise 29 - Jieux - Same State 2] | 71.4 nM | 704 nM |
| AAGAAACAUGAGGAUCACCCAUGUGAUAAUAUGGGAGGAUAUACGAAGACGAAAGUCGAAGUAGAAGGCCUAUGAA [Garnet 42] | 40.2 nM | 57.2 nM |
| UUGCAGUACGGGUAGGAUAUGUAGGGUGGUACAUGAGGAUCACCCAUGUGUCCACCCUUCGACCGGCAGAAGGGCCUGUCACUGC [Lerieseser] | 17.5 nM | 17.3 nM |
| UGAAGACAUGAGGAUCACCCAUGUGGGAUUAUGGGAGGAUAUACAAAGACGAGAGUCAGAGUAGAAGGCCUAGGAC [salish99-ss1-119(!)] | 32.2 nM | 72.9 nM |
| AGAAAACAUGAGGAUCACCCAUGUAGAAACAUGGGAGGAUAUACAAAGACGAAAGUCAAAGUAGAAGGCCUAAAGA [Mat - Same State 1 - Mod - D161] | 207 nM | 152 nM |
| GAAAAACAUGAGGAUCACCCAUGUGAGAAUAUGGGAGGAUAUACAAGGACGAGAGUCAAGGUAGAAGGCCUAAAAG [Mat - Same State 1 - Eli mod - 29] | 41.7 nM | 247 nM |
| AAAAAAAAGCCCAAGGAUAUCCGGAUGAAGACAUGAGGAUCACCCAUGUGAAAAAAAAAAUAUGAGGAGAAGGUGGGAAAAAAAAA [Esgemaedso] | 63.4 nM | 76.6 nM |
| AGGAGACAUGAGGAUCACCCAUGUGAGAAGAGGCGAGGAUAUCGAAAGAAAGAAGAGAAACGAGAAGGCGCGAGUA [salish99-SS1-018] | 24.9 nM | 40.8 nM |
| AAAACACAUGAGGAUCACCCAUGUAAAAACAUGGGAGGAUAUGCAUGAAAAACAUGCUAUGCAGAAGGCUCAUGUG [SS1 - 2] | 29 nM | 99.1 nM |
| CUAGUUGCAUACUAGGAUAUACACUGGGUGACAUGAGGAUCACCCAUGUAAAAGCACAUUCGGUAGUAGAAGGAGUGUGCAGGUC [Ceedesbi] | 92.6 nM | 68.8 nM |
| AGGAAACAUGAGGAUCACCCAUGUAAGAUAAACACAGGAUAUGCGAAAAGAAACAAAGAAGCAGAAGGGUGAAGAA [75%, Ex5 sub 1, 1] | 20.6 nM | 35.6 nM |
| AGAAAACAUGAGGAUCACCCAUGUGAUAAUAUGGGAGGAUAUACGGAGACGAAAGUCGACGUAGAAGGCCUAAAGA [Garnet 49] | 42.9 nM | 82.8 nM |
